In publication doi:10.1101/2023.07.22.550172 (bioRxiv, 2023):

Target: the molecule itself
Experiment: cryo-EM structure

B1: major pilin PilA of Myxococcus xanthus (MXAN_5783), mature, as the subunit of the type IV pilus (natural protein, UniProt Q59589 13-220, looked up)
chain: FTLIELMIVVAIIGILAAIAIPNFIKFQARSKQSEAKTNLKALYTAQKSFFSEKDRYSDFANEIGFAPERGNRYGYRVSAAAGDCEVRNAADLPVPAAGVPCISNDSFRFGANSAIDDPTPVVARFVPQGAAGWNTTLGVQPTIADCPNCNFFAGARGNADNEATFDDWVIAGFEGSGQVGPCSEAGNVASGTPYNTRNDVACDGAAQ
binding result: binds
